This note sets out measurements from PMC7492416 (Nature plants, 2020).

B2: MEKK2-mCherry (natural protein, Arabidopsis thaliana (Col-0 cDNA), UniProt O81472 1-773, looked up)
chain: MKKSSDKSPVRQHDTATQINSDAVSSSTSFTDSDSTCSFLTPSMEFPDRISFRRIDFSEAAPTGVVLPSTSSELTRSNSSENKIPNEDISVSTSSRYLVFDKILALMKKSPGRRGDKTSPARRLDRSDAVRRNIDYDAGEDSSSLLITRSLDFPNRTSFRVDGVDDGEIDRIYQYIGVSGPEDFAISSDAWKARMEHERSSSDVVNKLKSLDLDSREAGPSGGVVASSSMNHKFQGHDLSEAGSIGVVVASNFTLSESNKIENLNSLRDKEIVDGDMVENRCGIERKPTILVKSRGYLVHNDDVGVGGGIKGVRPPVLNVPRADKEVVDGGTVESKSGIEWKPTILVKSKGYLVSNDGGIKGVTSPVLNLRPTDKEVVDSGTVENRRGIKGVRPSVLKPPPVMKLPPVDLPGSSWDILTHFAPDSEIVRRPSSSSSSENGCDEEEAEDDKVEKEETGDMFIQLEDTTDEACSFTTNEGDSSSTVSNTSPICVSGGSINTSWQKGQLLRQGSFGSVYEAISEDGDFFAVKEVSLLDQGSQAQECIQQLEGEIALLSQLEHQNILRYRGTDKDGSNLYIFLELVTQGSLLELYRRYQIRDSLISLYTKQILDGLKYLHHKGFIHRDIKCATILVDANGTVKLADFGLAKVSKLNDIKSRKETLFWMAPEVINRKDNDGYRSPADIWSLGCTVLEMCTGQIPYSDLEPVEALFRIRRGTLPEVPDTLSLDARHFILKCLKLNPEERPTATELLNHPFVRRPLPSSGSGSTSPLIRR

Holding throughout (assay): FRET or BRET
A general note: In BRET a luciferase serves as donor, and the signal depends on an acceptor being close.

Assay [1] has as its target B2.
The target in assay [2] is T1, SUMM2-GFP (Arabidopsis thaliana (Col-0 cDNA), UniProt P60838 1-894).
T1 sequence (looked up): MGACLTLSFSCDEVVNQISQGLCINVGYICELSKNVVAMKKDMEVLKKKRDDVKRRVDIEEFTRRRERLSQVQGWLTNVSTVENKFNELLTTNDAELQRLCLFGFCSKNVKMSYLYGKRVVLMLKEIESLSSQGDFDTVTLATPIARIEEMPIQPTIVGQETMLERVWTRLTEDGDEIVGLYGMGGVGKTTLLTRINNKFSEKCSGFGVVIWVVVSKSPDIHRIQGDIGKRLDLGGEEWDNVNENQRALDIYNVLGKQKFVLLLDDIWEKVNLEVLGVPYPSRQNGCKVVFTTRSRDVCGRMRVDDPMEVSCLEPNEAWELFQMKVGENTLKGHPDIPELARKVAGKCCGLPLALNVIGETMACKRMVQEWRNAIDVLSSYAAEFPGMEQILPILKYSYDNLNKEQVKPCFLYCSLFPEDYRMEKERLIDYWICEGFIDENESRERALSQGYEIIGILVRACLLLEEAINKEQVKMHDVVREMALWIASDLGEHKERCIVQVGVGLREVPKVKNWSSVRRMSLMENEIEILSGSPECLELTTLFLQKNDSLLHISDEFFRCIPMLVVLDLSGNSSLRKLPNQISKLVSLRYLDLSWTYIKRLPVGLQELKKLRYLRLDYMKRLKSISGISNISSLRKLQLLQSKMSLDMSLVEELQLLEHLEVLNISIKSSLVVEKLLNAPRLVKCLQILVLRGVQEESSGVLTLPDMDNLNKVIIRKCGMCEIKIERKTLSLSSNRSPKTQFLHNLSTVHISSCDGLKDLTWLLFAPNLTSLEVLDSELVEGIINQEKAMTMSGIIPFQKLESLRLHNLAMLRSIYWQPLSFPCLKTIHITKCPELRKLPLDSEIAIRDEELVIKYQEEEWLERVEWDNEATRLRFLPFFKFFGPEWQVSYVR

For assay [3], the target named is T2, BIR2-mCherry (UniProt Q9LSI9 29-605).
T2 sequence (looked up): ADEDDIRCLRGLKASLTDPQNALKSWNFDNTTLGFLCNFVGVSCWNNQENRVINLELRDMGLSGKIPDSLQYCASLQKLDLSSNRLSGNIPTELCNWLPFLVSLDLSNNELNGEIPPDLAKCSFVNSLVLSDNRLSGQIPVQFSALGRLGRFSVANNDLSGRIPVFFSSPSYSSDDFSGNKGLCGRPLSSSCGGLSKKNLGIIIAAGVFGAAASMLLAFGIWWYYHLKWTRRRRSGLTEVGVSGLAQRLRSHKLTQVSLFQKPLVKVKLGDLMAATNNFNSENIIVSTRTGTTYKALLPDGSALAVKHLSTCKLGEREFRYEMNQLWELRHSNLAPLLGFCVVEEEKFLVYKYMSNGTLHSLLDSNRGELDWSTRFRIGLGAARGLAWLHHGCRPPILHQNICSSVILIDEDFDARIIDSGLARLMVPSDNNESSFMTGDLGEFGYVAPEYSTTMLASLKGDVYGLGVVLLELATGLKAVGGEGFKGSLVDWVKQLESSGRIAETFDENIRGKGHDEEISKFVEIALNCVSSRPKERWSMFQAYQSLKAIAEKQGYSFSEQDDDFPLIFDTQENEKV

B1: LET1-GFP (receptor, Arabidopsis thaliana (Col-0 cDNA), UniProt O22187 29-834, looked up)
chain: DTSTYTRPENFYVNCGSDSNVFYGGQTFVGDTNSSTNSVSFTNKGTEVINDQSSVAPEIYRTVRIFRHPSSYKFKLDSLGLHFVRLHFSVVFSRADLLTARFTVSATSGSNHHLKSFSPQNLTNTPRVEEFLLMMNSLEFEIRFVPDHSSLALINAIEVFSAPDDLEIPSASDKNLHTIYRLNVGGEKITPDNDTLGRTWLPDDDDFLYRKDSARNINSTQTPNYVGGLSSATDSTAPDFVYKTAKAMNRSSNEQVGMLMNVTWSFKVKSNHRHFIRIHFSDILSNLSNSDSDFYLFVNGYWRVDVKPSEQPRLASPFFKDVVNVSDGSGLLNISIGTKEANKDAGFLNGLEMMEVLSKSGSDYSNRSSSRVHIITGCAVAAAAASALVFSLLFMVFLKRRRSKKTKPEVEGTVWSPLPLHRGGSSDNRPISQYHNSPLRNLHLGLTIPFTDILSATNNFDEQLLIGKGGFGYVYKAILPDGTKAAIKRGKTGSGQGILEFQTEIQVLSRIRHRHLVSLTGYCEENSEMILVYEFMEKGTLKEHLYGSNLPSLTWKQRLEICIGAARGLDYLHSSGSEGAIIHRDVKSTNILLDEHNIAKVADFGLSKIHNQDESNISINIKGTFGYLDPEYLQTHKLTEKSDVYAFGVVLLEVLFARPAIDPYLPHEEVNLSEWVMFCKSKGTIDEILDPSLIGQIETNSLKKFMEIAEKCLKEYGDERPSMRDVIWDLEYVLQLQMMTNRREAHEEDSTAINSGGSLVAPRLMVSDSFSTNSIFQNGDESKNRFGFTDSSETRVFSQLKISDAR
B1 yielded an FRET efficiency in assay [1] of 13.1 ± 1.76%. B2 gave an FRET efficiency in assay [2] of 7.99 ± 0.19%.

B3: BAK1-GFP (receptor, Arabidopsis, UniProt Q94F62 26-615, looked up)
chain: NAEGDALSALKNSLADPNKVLQSWDATLVTPCTWFHVTCNSDNSVTRVDLGNANLSGQLVMQLGQLPNLQYLELYSNNITGTIPEQLGNLTELVSLDLYLNNLSGPIPSTLGRLKKLRFLRLNNNSLSGEIPRSLTAVLTLQVLDLSNNPLTGDIPVNGSFSLFTPISFANTKLTPLPASPPPPISPTPPSPAGSNRITGAIAGGVAAGAALLFAVPAIALAWWRRKKPQDHFFDVPAEEDPEVHLGQLKRFSLRELQVASDNFSNKNILGRGGFGKVYKGRLADGTLVAVKRLKEERTQGGELQFQTEVEMISMAVHRNLLRLRGFCMTPTERLLVYPYMANGSVASCLRERPESQPPLDWPKRQRIALGSARGLAYLHDHCDPKIIHRDVKAANILLDEEFEAVVGDFGLAKLMDYKDTHVTTAVRGTIGHIAPEYLSTGKSSEKTDVFGYGVMLLELITGQRAFDLARLANDDDVMLLDWVKGLLKEKKLEALVDVDLQGNYKDEEVEQLIQVALLCTQSSPMERPKMSEVVRMLEGDGLAERWEEWQKEEMFRQDFNYPTHHPAVSGWIIGDSTSQIENEYPSGPR
With B3, the FRET efficiency in assay [3] is 13.5%.
